Test results as given in paper PMC4191604 (Journal of Medicinal Chemistry, 2014).

Tests used:
Assay in all cases: SPR
[1] = target: T1, GBP1 mutant R48A (human, UniProt P32455 1-592, R48A)
T1 sequence (looked up): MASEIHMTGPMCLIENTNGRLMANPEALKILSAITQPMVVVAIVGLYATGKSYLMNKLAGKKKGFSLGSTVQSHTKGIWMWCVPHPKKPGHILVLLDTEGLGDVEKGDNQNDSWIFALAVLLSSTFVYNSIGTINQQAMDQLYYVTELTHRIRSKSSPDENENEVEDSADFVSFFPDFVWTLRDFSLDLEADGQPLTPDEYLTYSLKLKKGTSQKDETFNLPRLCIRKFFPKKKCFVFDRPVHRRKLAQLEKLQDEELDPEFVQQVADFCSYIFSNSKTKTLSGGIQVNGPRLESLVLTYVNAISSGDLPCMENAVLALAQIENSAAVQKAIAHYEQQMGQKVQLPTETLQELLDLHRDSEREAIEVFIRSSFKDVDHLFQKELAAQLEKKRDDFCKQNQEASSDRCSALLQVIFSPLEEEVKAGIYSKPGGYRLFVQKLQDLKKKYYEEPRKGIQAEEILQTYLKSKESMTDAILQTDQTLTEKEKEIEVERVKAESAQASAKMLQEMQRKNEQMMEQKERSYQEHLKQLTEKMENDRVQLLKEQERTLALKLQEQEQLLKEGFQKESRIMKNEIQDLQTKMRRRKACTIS

[2] = target: T2, GBP1 mutant D103N (human, UniProt P32455 1-592, D103N)
T2 sequence (looked up): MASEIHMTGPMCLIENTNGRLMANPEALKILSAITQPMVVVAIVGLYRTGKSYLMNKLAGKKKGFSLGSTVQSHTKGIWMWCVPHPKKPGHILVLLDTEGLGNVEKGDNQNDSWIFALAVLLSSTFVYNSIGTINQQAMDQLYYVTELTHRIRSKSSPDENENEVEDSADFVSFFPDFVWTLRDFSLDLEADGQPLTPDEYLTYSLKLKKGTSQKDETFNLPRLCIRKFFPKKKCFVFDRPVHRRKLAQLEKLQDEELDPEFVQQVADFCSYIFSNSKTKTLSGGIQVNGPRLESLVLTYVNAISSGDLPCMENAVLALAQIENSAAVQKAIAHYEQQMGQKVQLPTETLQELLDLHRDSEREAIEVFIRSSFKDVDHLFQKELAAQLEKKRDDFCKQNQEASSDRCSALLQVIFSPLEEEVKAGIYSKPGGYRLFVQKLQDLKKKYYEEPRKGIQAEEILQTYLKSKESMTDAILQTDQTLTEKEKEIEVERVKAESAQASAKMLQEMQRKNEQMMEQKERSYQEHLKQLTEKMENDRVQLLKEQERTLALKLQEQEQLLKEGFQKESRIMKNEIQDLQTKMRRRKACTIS

[3] = target: T3, GBP1 mutant Q72A (human, UniProt P32455 1-592, Q72A)
T3 sequence (looked up): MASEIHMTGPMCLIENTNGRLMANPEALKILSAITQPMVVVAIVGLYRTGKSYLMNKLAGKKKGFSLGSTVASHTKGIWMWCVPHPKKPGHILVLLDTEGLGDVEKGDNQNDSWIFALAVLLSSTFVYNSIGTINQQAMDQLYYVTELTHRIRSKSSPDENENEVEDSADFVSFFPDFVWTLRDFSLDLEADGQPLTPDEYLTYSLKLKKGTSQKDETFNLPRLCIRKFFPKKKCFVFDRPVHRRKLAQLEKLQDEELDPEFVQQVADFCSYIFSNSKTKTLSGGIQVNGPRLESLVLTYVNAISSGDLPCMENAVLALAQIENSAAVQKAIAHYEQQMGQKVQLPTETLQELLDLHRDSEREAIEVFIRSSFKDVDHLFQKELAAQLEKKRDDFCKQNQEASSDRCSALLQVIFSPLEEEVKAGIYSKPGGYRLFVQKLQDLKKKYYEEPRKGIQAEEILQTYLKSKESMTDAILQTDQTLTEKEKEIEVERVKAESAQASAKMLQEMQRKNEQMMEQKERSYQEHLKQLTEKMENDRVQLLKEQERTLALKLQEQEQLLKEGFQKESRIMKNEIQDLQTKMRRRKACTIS

[4] = target: T4, GBP1 mutant D184A (human, UniProt P32455 1-592, D184A)
T4 sequence (looked up): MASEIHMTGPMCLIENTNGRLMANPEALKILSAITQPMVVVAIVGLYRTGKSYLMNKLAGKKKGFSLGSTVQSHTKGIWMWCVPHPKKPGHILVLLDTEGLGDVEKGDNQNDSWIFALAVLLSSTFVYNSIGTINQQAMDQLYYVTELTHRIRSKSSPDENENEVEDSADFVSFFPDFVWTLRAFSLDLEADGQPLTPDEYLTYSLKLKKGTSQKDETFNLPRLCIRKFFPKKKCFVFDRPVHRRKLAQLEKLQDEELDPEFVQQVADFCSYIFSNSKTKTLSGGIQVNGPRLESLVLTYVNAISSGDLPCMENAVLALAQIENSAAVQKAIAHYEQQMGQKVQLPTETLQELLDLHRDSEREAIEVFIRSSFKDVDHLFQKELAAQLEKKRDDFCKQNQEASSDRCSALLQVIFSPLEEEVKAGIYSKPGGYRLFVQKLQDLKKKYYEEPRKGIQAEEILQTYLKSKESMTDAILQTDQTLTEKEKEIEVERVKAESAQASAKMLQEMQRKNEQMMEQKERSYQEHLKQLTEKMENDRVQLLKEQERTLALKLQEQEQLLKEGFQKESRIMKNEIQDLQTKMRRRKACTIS

Kd [1]: 21 ± 0.1 nM
Kd [2]: 15 ± 0.1 nM
Kd [3]: 161 ± 17 nM
Kd [4]: 77 ± 3 nM
B1: PIM1 (recombinant) (enzyme)
chain: not shown
